B1: H1 L1.45 XENP34608 (antibody, V domains shown)
VH: QLQVQESGPGLVKPSETLSLTCTVSGGSISNSYFSWGWIRQPPGKGLEWIGSFYYGEKTYYNPSLKSRATISIDTSKSQFSLKLSSVTAADTAVYYCPRGPTMIRGVIDSWGQGTLVTVSS
VL: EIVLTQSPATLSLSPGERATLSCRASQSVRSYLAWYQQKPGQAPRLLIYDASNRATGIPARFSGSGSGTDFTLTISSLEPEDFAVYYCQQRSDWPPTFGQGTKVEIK
B2: H1 L1.60 XENP34623 (antibody, V domains shown)
VH: QLQVQESGPGLVKPSETLSLTCTVSGGSISNSYFSWGWIRQPPGKGLEWIGSFYYGEKTYYNPSLKSRATISIDTSKSQFSLKLSSVTAADTAVYYCPRGPTMIRGVIDSWGQGTLVTVSS
VL: EIVLTQSPATLSLSPGERATLSCRASQSVRSYLAWYQQKPGQAPRLLIYDASNRATGIPARFSGSGSGTDFTLTISSLEPEDFAVYYCQQRSNWPPTFGPGTKVEIK
B3: H1 L1.56 XENP34619 (antibody, V domains shown)
VH: QLQVQESGPGLVKPSETLSLTCTVSGGSISNSYFSWGWIRQPPGKGLEWIGSFYYGEKTYYNPSLKSRATISIDTSKSQFSLKLSSVTAADTAVYYCPRGPTMIRGVIDSWGQGTLVTVSS
VL: EIVLTQSPATLSLSPGERATLSCRASQSVRSYLAWYQQKPGQAPRLLIYDASNRATGIPARFSGSGSGTDFTLTISSLEPEDFAVYYCQQRSNWPLTFGQGTKVEIK
B4: H1 L1.53 XENP34616 (antibody, V domains shown)
VH: QLQVQESGPGLVKPSETLSLTCTVSGGSISNSYFSWGWIRQPPGKGLEWIGSFYYGEKTYYNPSLKSRATISIDTSKSQFSLKLSSVTAADTAVYYCPRGPTMIRGVIDSWGQGTLVTVSS
VL: EIVLTQSPATLSLSPGERATLSCRASQSVRSYLAWYQQKPGQAPRLLIYDASNRATGIPARFSGSGSGTDFTLTISSLEPEDFAVYYCQQRSNYPPTFGQGTKVEIK
B5: H1 L1.59 XENP34622 (antibody, V domains shown)
VH: QLQVQESGPGLVKPSETLSLTCTVSGGSISNSYFSWGWIRQPPGKGLEWIGSFYYGEKTYYNPSLKSRATISIDTSKSQFSLKLSSVTAADTAVYYCPRGPTMIRGVIDSWGQGTLVTVSS
VL: EIVLTQSPATLSLSPGERATLSCRASQSVRSYLAWYQQKPGQAPRLLIYDASNRATGIPARFSGSGSGTDFTLTISSLEPEDFAVYYCQQRSNWPPTFGGGTKVEIK
B6: H1 L1.47 XENP34610 (antibody, V domains shown)
VH: QLQVQESGPGLVKPSETLSLTCTVSGGSISNSYFSWGWIRQPPGKGLEWIGSFYYGEKTYYNPSLKSRATISIDTSKSQFSLKLSSVTAADTAVYYCPRGPTMIRGVIDSWGQGTLVTVSS
VL: EIVLTQSPATLSLSPGERATLSCRASQSVRSYLAWYQQKPGQAPRLLIYDASNRATGIPARFSGSGSGTDFTLTISSLEPEDFAVYYCQQRSQWPPTFGQGTKVEIK
B7: H1 L1.46 XENP34609 (antibody, V domains shown)
VH: QLQVQESGPGLVKPSETLSLTCTVSGGSISNSYFSWGWIRQPPGKGLEWIGSFYYGEKTYYNPSLKSRATISIDTSKSQFSLKLSSVTAADTAVYYCPRGPTMIRGVIDSWGQGTLVTVSS
VL: EIVLTQSPATLSLSPGERATLSCRASQSVRSYLAWYQQKPGQAPRLLIYDASNRATGIPARFSGSGSGTDFTLTISSLEPEDFAVYYCQQRSSWPPTFGQGTKVEIK
B8: H1 L1.61 XENP34624 (antibody, V domains shown)
VH: QLQVQESGPGLVKPSETLSLTCTVSGGSISNSYFSWGWIRQPPGKGLEWIGSFYYGEKTYYNPSLKSRATISIDTSKSQFSLKLSSVTAADTAVYYCPRGPTMIRGVIDSWGQGTLVTVSS
VL: EIVLTQSPATLSLSPGERATLSCRASQSVRSYLAWYQQKPGQAPRLLIYDASNRATGIPARFSGSGSGTDFTLTISSLEPEDFAVYYCQQRSNWPPTFGQGTKLEIK
B9: XENP37818 TBRII-A_H1.190_L1.53 (antibody, V domains shown)
VH: QLQVQESGPGLVKPSETLSLTCTVSGGSISSSYFSWGWIRQPPGKGLEWIGSFYYGGKTYYNPSLKSRATISIDTSKNQFSLKLSSVTAADTAVYYCARGPTTIRGVIDSWGQGTLVTVSS
VL: EIVLTQSPATLSLSPGERATLSCRASQSVRSYLAWYQQKPGQAPRLLIYDASNRATGIPARFSGSGSGTDFTLTISSLEPEDFAVYYCQQRSNYPPTFGQGTKVEIK
B10: XENP34306 H1.1 L1 (antibody, V domains shown)
VH: QLQVQESGPGLVKPSETLSLTCTVSGGSISNSYFSWGWIRQPPGKGLEWIGSFYYGEKTYYNPSLKSRATISIDTSKSQFSLKLSSVTAADTAVYYCPRGPTVIRGVIDSWGQGTLVTVSS
VL: EIVLTQSPATLSLSPGERATLSCRASQSVRSYLAWYQQKPGQAPRLLIYDASNRATGIPARFSGSGSGTDFTLTISSLEPEDFAVYYCQQRSNWPPTFGQGTKVEIK
B11: XENP35124 H1.37 L1 (antibody, V domains shown)
VH: QLQVQESGPGLVKPSETLSLTCTVSGGSISNSYFSWGWVRQPPGKGLEWIGSFYYGEKTYYNPSLKSRATISIDTSKSQFSLKLSSVTAADTAVYYCPRGPTMIRGVIDSWGQGTLVTVSS
VL: EIVLTQSPATLSLSPGERATLSCRASQSVRSYLAWYQQKPGQAPRLLIYDASNRATGIPARFSGSGSGTDFTLTISSLEPEDFAVYYCQQRSNWPPTFGQGTKVEIK
B12: XENP35120 H1.29 L1 (antibody, V domains shown)
VH: QLQVQESGPGLVKPSETLSLTCTVSGGSISNSYFTWGWIRQPPGKGLEWIGSFYYGEKTYYNPSLKSRATISIDTSKSQFSLKLSSVTAADTAVYYCPRGPTMIRGVIDSWGQGTLVTVSS
VL: EIVLTQSPATLSLSPGERATLSCRASQSVRSYLAWYQQKPGQAPRLLIYDASNRATGIPARFSGSGSGTDFTLTISSLEPEDFAVYYCQQRSNWPPTFGQGTKVEIK
B13: XENP35121 H1.30 L1 (antibody, V domains shown)
VH: QLQVQESGPGLVKPSETLSLTCTVSGGSISNSYFYWGWIRQPPGKGLEWIGSFYYGEKTYYNPSLKSRATISIDTSKSQFSLKLSSVTAADTAVYYCPRGPTMIRGVIDSWGQGTLVTVSS
VL: EIVLTQSPATLSLSPGERATLSCRASQSVRSYLAWYQQKPGQAPRLLIYDASNRATGIPARFSGSGSGTDFTLTISSLEPEDFAVYYCQQRSNWPPTFGQGTKVEIK
B14: XENP34305 H1 L1 (antibody, V domains shown)
VH: QLQVQESGPGLVKPSETLSLTCTVSGGSISNSYFSWGWIRQPPGKGLEWIGSFYYGEKTYYNPSLKSRATISIDTSKSQFSLKLSSVTAADTAVYYCPRGPTMIRGVIDSWGQGTLVTVSS
VL: EIVLTQSPATLSLSPGERATLSCRASQSVRSYLAWYQQKPGQAPRLLIYDASNRATGIPARFSGSGSGTDFTLTISSLEPEDFAVYYCQQRSNWPPTFGQGTKVEIK
B15: XENP35122 H1.33 L1 (antibody, V domains shown)
VH: QLQVQESGPGLVKPSETLSLTCTVSGGSISNSYFSWAWIRQPPGKGLEWIGSFYYGEKTYYNPSLKSRATISIDTSKSQFSLKLSSVTAADTAVYYCPRGPTMIRGVIDSWGQGTLVTVSS
VL: EIVLTQSPATLSLSPGERATLSCRASQSVRSYLAWYQQKPGQAPRLLIYDASNRATGIPARFSGSGSGTDFTLTISSLEPEDFAVYYCQQRSNWPPTFGQGTKVEIK
B16: XENP35119 H1.21 L1 (antibody, V domains shown)
VH: QLQVQESGPGLVKPSETLSLTCTVSGGSISNSAFSWGWIRQPPGKGLEWIGSFYYGEKTYYNPSLKSRATISIDTSKSQFSLKLSSVTAADTAVYYCPRGPTMIRGVIDSWGQGTLVTVSS
VL: EIVLTQSPATLSLSPGERATLSCRASQSVRSYLAWYQQKPGQAPRLLIYDASNRATGIPARFSGSGSGTDFTLTISSLEPEDFAVYYCQQRSNWPPTFGQGTKVEIK
B17: XENP35127 H1.48 L1 (antibody, V domains shown)
VH: QLQVQESGPGLVKPSETLSLTCTVSGGSISNSYFSWGWIRQPPGKGLEWIGSFDYGEKTYYNPSLKSRATISIDTSKSQFSLKLSSVTAADTAVYYCPRGPTMIRGVIDSWGQGTLVTVSS
VL: EIVLTQSPATLSLSPGERATLSCRASQSVRSYLAWYQQKPGQAPRLLIYDASNRATGIPARFSGSGSGTDFTLTISSLEPEDFAVYYCQQRSNWPPTFGQGTKVEIK
B18: XENP35123 H1.36 L1 (antibody, V domains shown)
VH: QLQVQESGPGLVKPSETLSLTCTVSGGSISNSYFSWSWIRQPPGKGLEWIGSFYYGEKTYYNPSLKSRATISIDTSKSQFSLKLSSVTAADTAVYYCPRGPTMIRGVIDSWGQGTLVTVSS
VL: EIVLTQSPATLSLSPGERATLSCRASQSVRSYLAWYQQKPGQAPRLLIYDASNRATGIPARFSGSGSGTDFTLTISSLEPEDFAVYYCQQRSNWPPTFGQGTKVEIK
B19: XENP35125 H1.51 L1 (antibody, V domains shown)
VH: QLQVQESGPGLVKPSETLSLTCTVSGGSISNSYFSWGWIRQPPGKGLEWIGSFNYGEKTYYNPSLKSRATISIDTSKSQFSLKLSSVTAADTAVYYCPRGPTMIRGVIDSWGQGTLVTVSS
VL: EIVLTQSPATLSLSPGERATLSCRASQSVRSYLAWYQQKPGQAPRLLIYDASNRATGIPARFSGSGSGTDFTLTISSLEPEDFAVYYCQQRSNWPPTFGQGTKVEIK
B20: XENP35126 H1.56 L1 (antibody, V domains shown)
VH: QLQVQESGPGLVKPSETLSLTCTVSGGSISNSYFSWGWIRQPPGKGLEWIGSFYYGGKTYYNPSLKSRATISIDTSKSQFSLKLSSVTAADTAVYYCPRGPTMIRGVIDSWGQGTLVTVSS
VL: EIVLTQSPATLSLSPGERATLSCRASQSVRSYLAWYQQKPGQAPRLLIYDASNRATGIPARFSGSGSGTDFTLTISSLEPEDFAVYYCQQRSNWPPTFGQGTKVEIK
B21: XENP35128 H1.50 L1 (antibody, V domains shown)
VH: QLQVQESGPGLVKPSETLSLTCTVSGGSISNSYFSWGWIRQPPGKGLEWIGSFKYGEKTYYNPSLKSRATISIDTSKSQFSLKLSSVTAADTAVYYCPRGPTMIRGVIDSWGQGTLVTVSS
VL: EIVLTQSPATLSLSPGERATLSCRASQSVRSYLAWYQQKPGQAPRLLIYDASNRATGIPARFSGSGSGTDFTLTISSLEPEDFAVYYCQQRSNWPPTFGQGTKVEIK

The first experiment deals with T1, human TGFßRII (antigen of the Octet experiments) (human, UniProt P37173 23-166). As to the kind of experiment: BLI (Octet). On the technique in general: Biolayer interferometry detects binding as a change in optical thickness at a sensor tip.
T1 sequence (P37173 23-166): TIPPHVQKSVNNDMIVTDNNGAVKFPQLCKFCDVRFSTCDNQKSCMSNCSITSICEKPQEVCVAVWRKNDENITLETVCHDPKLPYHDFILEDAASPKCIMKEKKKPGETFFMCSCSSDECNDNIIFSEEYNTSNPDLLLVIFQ
Regarding B1, the Kd (in general, the equilibrium constant for the complex coming apart) was found to be 0.604 nM.

For the molecule B2, the Kd came to 0.888 nM.

The molecule B3 showed a Kd of 0.001 nM.

For the molecule B4, the Kd amounted to 0.596 nM.

Turning to B5, the Kd is 0.311 nM.

Turning to B6, the Kd came out at 0.296 nM.

Consider B7, for which the Kd worked out at 0.666 nM.

The molecule B8 returned a Kd of 0.642 nM.

The next experiment has as its target T1, human TGFßRII (antigen of the Octet …).
Experiment: not given
The molecule B9 had a Kd of 109 nM.

The target is the same in a further experiment. As to the kind of experiment: Octet.
B10: the Kd worked out at 4.02 nM.

For B11, the Kd amounted to 2.63 nM.

Turning to B12, the Kd was found to be 4.6 nM.

Consider B13, for which the Kd is 10.3 nM.

The molecule B14 gave a Kd of 2.92 nM.

On to B15, for which the Kd worked out at 3.42 nM.

For B16, binding was put at a Kd of 2.79 nM.

B17 came in with a Kd of 35 nM.

With B18, the affinity, expressed as Kd, was 5.1 nM.

As to B19, the Kd came out at 23 nM.

Regarding B20, the affinity, expressed as Kd, was 3.36 nM.

B21 came in with a Kd of 31.4 nM.

Values taken from US20220144956A1 (published 2022).
